# Residues, ends and D or L forms follow the SMILES beside them. No end group written: not given here.
# T1: rCRFR1 (Rattus norvegicus, UniProt P35353)
# T1 construct: expressed in transfected cells; host or cells: HEK 293 cells, stably transfected (HEK-rCRFR1)
# T1 sequence (P35353 24-415): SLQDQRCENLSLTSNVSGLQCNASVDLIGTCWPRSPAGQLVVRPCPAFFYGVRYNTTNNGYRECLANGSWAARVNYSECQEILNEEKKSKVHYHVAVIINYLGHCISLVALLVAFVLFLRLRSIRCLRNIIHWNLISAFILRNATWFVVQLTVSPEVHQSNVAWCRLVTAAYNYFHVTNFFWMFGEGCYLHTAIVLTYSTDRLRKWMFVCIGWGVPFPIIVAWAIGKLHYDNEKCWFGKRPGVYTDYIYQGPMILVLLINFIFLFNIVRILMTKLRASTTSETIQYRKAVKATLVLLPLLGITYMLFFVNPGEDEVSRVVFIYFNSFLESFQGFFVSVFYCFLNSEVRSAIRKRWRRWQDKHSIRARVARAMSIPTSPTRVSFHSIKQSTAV
# T2: rat CRF receptor, type 1 (rCRFR1) (rat, UniProt P35353 24-415)
# T2 sequence (looked up): T1 sequence (P35353 24-415)
# B1: ovine corticotropin-releasing factor (oCRF) (peptide)
# peptide: SQEPPISLDLTFHLLREVLEMTKADQLAQQAHSNRKLLDIA
# modifications: ends and bridges not checked
# notes: Synthetic peptide (Fmoc chemistry on TentaGel S RAM resin); also called compound 1
# Key:
# [1] = molecular target: T1, rCRFR1; experiment: cAMP stimulation / inhibition of oCRF-stimulated cAMP production in HEK-rCRFR1 cells; type: cell-based
# How it was run: (§1)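 HEK cells expressing rat CRFR1 or mouse CRFR2β were treated with CRF agonists, with or without antagonist at 1 μM or 10 nM, or with antagonist (1 μM) alone. Cells were lysed in 6% TCA (5 min, 100° C.), and cAMP was measured by RIA.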
# [2] = molecular target: T3, CRFR2α (Mus musculus, UniProt Q60748); settings: BALB/c mice; brain area exclusively expressing CRF2α-mRNA; cited from earlier work
# T3 construct: from tissue; host or cells: lateral septum of BALB/c mice, in vivo
# T3 sequence (Q60748 whole entry): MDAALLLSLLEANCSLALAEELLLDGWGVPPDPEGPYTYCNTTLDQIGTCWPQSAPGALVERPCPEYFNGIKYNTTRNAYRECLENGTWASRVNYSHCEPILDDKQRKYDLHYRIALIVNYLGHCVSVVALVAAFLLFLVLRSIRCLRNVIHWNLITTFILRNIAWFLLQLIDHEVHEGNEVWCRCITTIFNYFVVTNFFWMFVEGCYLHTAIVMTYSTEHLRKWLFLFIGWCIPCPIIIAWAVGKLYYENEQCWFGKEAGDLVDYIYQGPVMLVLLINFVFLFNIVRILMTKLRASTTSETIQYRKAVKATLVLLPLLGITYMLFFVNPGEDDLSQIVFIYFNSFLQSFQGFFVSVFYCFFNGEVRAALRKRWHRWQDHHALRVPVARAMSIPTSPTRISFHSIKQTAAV
# [3] = molecular target: T4, mCRFR2β (Mus musculus, UniProt Q60748); experiment: Displacement of [^125I-Tyr^0]Svg from membranes of HEK-mCRFR2β cells; type: binding
# T4 construct: expressed in transfected cells; host or cells: HEK 293 cells, stably transfected (HEK-mCRFR2β); membrane homogenates
# [4] = molecular target: T4, mCRFR2β; experiment: cAMP stimulation / inhibition of Svg-stimulated cAMP production in HEK-mCRFR2β cells; type: cell-based
# How it was run: as §1
# Target sequence in this assay (Q60748 1-431 isoform Q60748-2): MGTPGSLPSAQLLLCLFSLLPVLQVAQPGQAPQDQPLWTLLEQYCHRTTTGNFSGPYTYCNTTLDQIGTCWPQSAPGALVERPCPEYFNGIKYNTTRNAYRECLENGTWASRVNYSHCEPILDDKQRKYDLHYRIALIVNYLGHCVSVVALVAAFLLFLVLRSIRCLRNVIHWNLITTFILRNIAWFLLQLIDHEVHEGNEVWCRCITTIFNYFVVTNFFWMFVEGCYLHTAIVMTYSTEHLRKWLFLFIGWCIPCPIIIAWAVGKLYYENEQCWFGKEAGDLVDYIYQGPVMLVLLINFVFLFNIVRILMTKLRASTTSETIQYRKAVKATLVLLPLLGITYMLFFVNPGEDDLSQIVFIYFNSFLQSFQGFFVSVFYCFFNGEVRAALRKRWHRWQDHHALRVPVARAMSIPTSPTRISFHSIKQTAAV
# [5] = molecular target: T1, rCRFR1; experiment: Displacement of [^125I-Tyr^0]oCRF from membranes of HEK-rCRFR1 cells; type: binding
# Procedure: (§2) Binding assays were performed in 96-well MultiScreen plates (Millipore, Eschborn, Germany) with GF/B filters (pore size 1.0 μm). […] After incubation (60 min, 23° C.), membrane suspension was aspirated through the plate, followed by two washes with assay buffer (0.2 ml, 23°). Radioactivity of the punched filters was measured with a 1470 WIZARD automatic gamma counter (Berthold, Hannover). […] Statistical analysis was performed with ANOVA, and significant differences between groups were determined by post hoc comparison using the Dunn test.
# Membrane homogenates of human embryonic kidney (HEK) 293 cells stably transfected with cDNA coding for rat CRF receptor, type 1 (rCRFR1) or mouse CRF receptor, type 2β (mCRFR2β) were prepared according to standard protocols (see, e.g., Sambrook et al., Molecular Cloning: A Laboratory Manual, 2nd. Edition, Cold Spring Habor Laboratory Press, Cold Spring Habor, N.Y., 1989; Ausubel et al., Current Protocols in Molecular Biology, Green Publishing Associates and Wiley Interscience, NY, 1989).
# [6] = molecular target: T2, rat CRF receptor, type 1 (rCRFR1); experiment: cell-based or functional assay
# [7] = molecular target: mouse CRF receptor, type 2β (mCRFR2β) (mouse) (UniProt Q60748); experiment: radioligand binding to membranes of HEK-mCRFR2β cells, displaced by Svg
# [8] = molecular target: T2, rat CRF receptor, type 1 (rCRFR1); experiment: radioligand displacement; this end of the range tied by the Kd ratio of Table 3 (220.9/153.6)
# Procedure: as §2
# [9] = molecular target: T2, rat CRF receptor, type 1 (rCRFR1); experiment: cell-based or functional assay; remark: listed apart in the source
# [10] = molecular target: T2, rat CRF receptor, type 1 (rCRFR1); experiment: displacement of [125I-Tyr0]oCRF from HEK-rCRFR1 membranes
# Procedure: as §2
# [11] = molecular target: mouse CRF receptor, type 2β (mCRFR2β) (mouse) (UniProt Q60748); experiment: Kd(rCRFR1)/Kd(mCRFR2β) of the peptide normalised to that of astressin; radioligand displacement
# [12] = molecular target: mouse CRF receptor, type 2β (mCRFR2β) (mouse) (UniProt Q60748); experiment: radioligand displacement; this end of the range tied by the Kd ratio of Table 3 (20.8/3.5)
# [13] = molecular target: T2, rat CRF receptor, type 1 (rCRFR1); experiment: cell-based or functional assay; remark: listed apart in the source
# [14] = molecular target: T2, rat CRF receptor, type 1 (rCRFR1); experiment: cell-based or functional assay; remark: listed apart in the source
molecule,measurement,setting,value
"CC[C@H](C)[C@H](NC(=O)[C@@H](NC(=O)[C@H](CC(=O)O)NC(=O)[C@H](CC(C)C)NC(=O)[C@H](CC(C)C)NC(=O)[C@H](CC(C)C)NC(=O)[C@H](CCCNC(=N)N)NC(=O)[C@H](CC(N)=O)NC(=O)[C@H](CC(N)=O)NC(=O)[C@H](C)NC(=O)[C@H](C)NC(=O)[C@H](CCC(N)=O)NC(=O)[C@H](CCC(N)=O)NC(=O)[C@H](CCCCN)NC(=O)[C@H](CCC(=O)O)NC(=O)[C@H](CCCCN)NC(=O)[C@H](CCC(=O)O)NC(=O)[C@H](CCC(N)=O)NC(=O)[C@H](CCCCN)NC(=O)[C@H](CCC(=O)O)NC(=O)[C@@H](NC(=O)[C@H](CCC(=O)O)NC(=O)[C@@H](NC(=O)[C@H](CCSC)NC(=O)[C@H](CCCCN)NC(=O)[C@H](CCCNC(=N)N)NC(=O)[C@H](CC(C)C)NC(=O)[C@H](CC(C)C)NC(=O)[C@H](Cc1c[nH]cn1)NC(=O)[C@H](N)Cc1ccccc1)[C@@H](C)CC)[C@@H](C)CC)[C@@H](C)O)C(N)=O [[DPhe^11, His^12]Svg(11-40)]",inhibitory potency towards rCRFR1,"[1]; HEK-rCRFR1 cells, difference significant",15 % of the potency of astressin
same,CRF-mediated behavioral effects in the lateral septum,[2],inhibited
"CC[C@H](C)[C@H](NC(=O)[C@@H](NC(=O)[C@H](CC(=O)O)NC(=O)[C@H](CC(C)C)NC(=O)[C@H](CC(C)C)NC(=O)[C@H](CC(C)C)NC(=O)[C@H](CCCNC(=N)N)NC(=O)[C@H](CC(N)=O)NC(=O)[C@H](CC(N)=O)NC(=O)[C@H](C)NC(=O)[C@H](C)NC(=O)[C@H](CCC(N)=O)NC(=O)[C@H](CCC(N)=O)NC(=O)[C@H](CCCCN)NC(=O)[C@H](CCC(=O)O)NC(=O)[C@H](CCCCN)NC(=O)[C@H](CCC(=O)O)NC(=O)[C@H](CCC(N)=O)NC(=O)[C@H](CCCCN)NC(=O)[C@H](CCC(=O)O)NC(=O)[C@@H](NC(=O)[C@H](CCC(=O)O)NC(=O)[C@@H](NC(=O)[C@H](CCSC)NC(=O)[C@H](CCCCN)NC(=O)[C@H](CCCNC(=N)N)NC(=O)[C@H](CC(C)C)NC(=O)[C@H](CC(C)C)NC(=O)[C@@H](N)Cc1ccc(O)cc1)[C@@H](C)CC)[C@@H](C)CC)[C@@H](C)O)C(N)=O [compound 20, [Tyr^12]Svg(12-40)] (H-YLLRKMIEIEKQEKEKQQAANNRLLLDTI-NH2; N-terminus assumed)",HEK-rCRFR1 cells rel. pot. (relative potency),"[1]; Table 4, 1 μM antagonist, cAMP production stimulated by 1 nM oCRF, oCRF alone = 1.00",0.90 ± 0.02
same,Emax,[1]; read-out: HEK-rCRFR1 cells rel. IA (relative intrinsic activity),6 ± 3%
same,Kd,[3],428 ± 119 nM
same,high-affinity binding to mCRFR2β,[3]; N-terminal truncation by one amino acid and Glu^12 to tyrosine,completely abolished
same,Selectivity,"[3]; Table 3, Kd(rCRFR1)(peptide)/Kd(rCRFR1)(astressin) × Kd(mCRFR2β)(astressin)/Kd(mCRFR2β)(peptide)",1.63
same,HEK-mCRFR2β cells rel. pot. (relative potency),"[4]; Table 4, 10 nM antagonist, cAMP production stimulated by 1 nM Svg, Svg alone = 1.00",0.80 ± 0.04
same,Emax,[4]; read-out: HEK-mCRFR2β cells rel. IA (relative intrinsic activity),0.6 ± 0.2%
same,Kd,[5],995 ± 337 nM
α-helical CRF(9-41) (peptide),"% IA (intrinsic activity), cAMP production, HEK-rCRFR1 cells (relative, oCRF = 1.00)",[6],0.16
YZGPPISIDLSLELLRKMIEIEKQEKEKQQAANNRLLLDTI (125I-iodinated Tyr at position 0) [[^125I-Tyr^0]Svg],specific binding,[7],94%
"YHLLRKMIEIEKQEKEKQQAANNRLLLDTI (ends and bridges not checked, also called compound 18) [[Tyr^11, His^12]Svg(11-40)]",fold decrease of binding affinity against antisauvagine-30 (compound 11),[8],1.4 to 5.9 fold
same,"rel. IA (relative intrinsic activity), cAMP production, HEK-rCRFR1 cells",[9],"0.03 relative, oCRF = 1.00"
same,"rel. pot. (relative potency), inhibition of oCRF-stimulated cAMP production, HEK-rCRFR1 cells",[9],"0.79 relative, oCRF = 1.00"
same,Kd,[10],221 nM
same,Selectivity,[11],31.6
"YELLRKMIEIEKQEKEKQQAANNRLLLDTI (ends and bridges not checked, also called compound 19) [[Tyr^11]Svg(11-40)]",fold decrease of binding affinity against [DPhe^11]Svg(11-40) (compound 12),[12],1.4 to 5.9 fold
same,"rel. IA (relative intrinsic activity), cAMP production, HEK-rCRFR1 cells",[9],"0.09 relative, oCRF = 1.00"
same,"rel. pot. (relative potency), inhibition of oCRF-stimulated cAMP production, HEK-rCRFR1 cells",[9],"0.82 relative, oCRF = 1.00"
same,Kd,[10],977 nM
same,Selectivity,[11],33
B1,"rel. IA (relative intrinsic activity), cAMP production, HEK-rCRFR1 cells",[9],"1 relative, oCRF = 1.00"
same,"% IA (intrinsic activity), cAMP production, HEK-rCRFR1 cells",[13],"1 relative, oCRF = 1.00"
same,"EC50, cAMP accumulation in HEK-rCRFR1 cells",[14],0.41 nM
same,Selectivity,[11],0.002

# — patent US6846803B1, “Antagonists specific for the corticotropin-releasing factor receptor type 2 (CRFR2)” (priority 1998, dated 2005)
